The results in this text go back to publication PMC3713010, “Sox2 Transcriptionally Regulates Pqbp1, an Intellectual Disability-Microcephaly Causative Gene, in Neural Stem Progenitor Cells”.

In one data set the target is Sox2;Pax6 (Mus musculus (B6);Mus musculus (B6), UniProt P48432;P63015 1-319;1-422, |). The data set is described as follows: EMSA; supershift with anti-Pax6; EMSA: 20 ng GST-fusion protein, 20 mM HEPES pH 7.8, 45 mM KCl, 10 mM NaCl, 1 mM EDTA, 1 mM DTT, 10% glycerol, 0.2 ug/uL BSA, 0.1% NP-40, 50 ng poly-dIdC; RT 30. The settings on record: protein: recombinant;recombinant; tags: GST (N-terminal, pGEX-6P-1);GST (N-terminal, pGEX-6P-1); copies: 1;1; label: 32P. (A gel shift assay detects complexes by their altered migration in electrophoresis.)
Chain of Sox2;Pax6 (P48432 whole entry, chain 1 of 2, the tested form may be a part): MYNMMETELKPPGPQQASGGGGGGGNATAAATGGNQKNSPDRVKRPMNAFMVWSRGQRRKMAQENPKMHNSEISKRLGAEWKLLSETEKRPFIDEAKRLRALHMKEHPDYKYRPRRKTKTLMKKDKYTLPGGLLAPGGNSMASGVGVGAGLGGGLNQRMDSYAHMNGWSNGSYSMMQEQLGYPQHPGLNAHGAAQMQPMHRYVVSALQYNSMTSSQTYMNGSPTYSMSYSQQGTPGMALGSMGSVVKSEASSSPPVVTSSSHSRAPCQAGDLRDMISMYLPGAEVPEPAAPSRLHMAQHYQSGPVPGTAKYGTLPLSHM
Chain of Sox2;Pax6 (P63015 whole entry, chain 2 of 2, the tested form may be a part): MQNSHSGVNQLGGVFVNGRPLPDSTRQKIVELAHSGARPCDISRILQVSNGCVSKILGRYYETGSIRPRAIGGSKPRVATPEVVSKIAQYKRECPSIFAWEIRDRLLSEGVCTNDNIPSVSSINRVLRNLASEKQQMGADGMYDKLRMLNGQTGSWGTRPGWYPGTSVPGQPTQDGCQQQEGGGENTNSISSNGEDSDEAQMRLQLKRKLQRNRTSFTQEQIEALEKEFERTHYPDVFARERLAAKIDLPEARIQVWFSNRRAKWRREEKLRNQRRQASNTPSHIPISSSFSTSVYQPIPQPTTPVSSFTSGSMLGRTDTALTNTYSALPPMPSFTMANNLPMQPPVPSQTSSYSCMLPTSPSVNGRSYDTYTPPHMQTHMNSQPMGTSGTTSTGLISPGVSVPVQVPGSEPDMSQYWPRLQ

The next data set deals with Sox2;Brn2 (Mus musculus (B6);Mus musculus (B6), UniProt P48432;P31360 1-319;1-445, |). The data set is described as follows: EMSA; supershift with anti-Brn2; EMSA: 20 ng GST-fusion protein, 20 mM HEPES pH 7.8, 45 mM KCl, 10 mM NaCl, 1 mM EDTA, 1 mM DTT, 10% glycerol, 0.2 ug/uL BSA, 0.1% NP-40, 50 ng poly-dIdC; RT 30. As to conditions: protein: recombinant;recombinant; tags: GST (N-terminal, pGEX-6P-1);GST (N-terminal, pGEX-6P-1); copies: 1;1; label: 32P.
Chain of Sox2;Brn2 (P48432 whole entry, chain 1 of 2, the tested form may be a part): as the sequence (P48432 whole entry, chain 1 of 2, the tested form may be a part) above
Chain of Sox2;Brn2 (P31360 whole entry, chain 2 of 2, the tested form may be a part): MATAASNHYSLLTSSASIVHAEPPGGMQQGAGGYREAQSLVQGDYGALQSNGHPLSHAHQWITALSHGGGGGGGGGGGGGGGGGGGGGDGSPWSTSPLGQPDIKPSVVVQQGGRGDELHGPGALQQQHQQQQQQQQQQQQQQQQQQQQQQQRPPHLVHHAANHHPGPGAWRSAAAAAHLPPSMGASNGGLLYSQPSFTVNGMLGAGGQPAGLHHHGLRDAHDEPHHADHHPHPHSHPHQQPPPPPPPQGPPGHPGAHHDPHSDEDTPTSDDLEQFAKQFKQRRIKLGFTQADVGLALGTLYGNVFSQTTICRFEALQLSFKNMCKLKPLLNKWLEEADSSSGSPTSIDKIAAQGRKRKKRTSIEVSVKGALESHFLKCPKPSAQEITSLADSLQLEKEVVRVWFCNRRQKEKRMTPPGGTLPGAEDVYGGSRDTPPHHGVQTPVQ

B1: Sox2-Pax6 consensus probe (dsDNA)
DNA 1: GGGAAATATTCATTGTTGTTGCTCACCTACCATGGA
DNA 2: TCCATGGTAGGTGAGCAACAACAATGAATATTTCCC
Take B1: the binding result with Sox2;Pax6 is “binds”.

B2: Sox2-Brn2 consensus probe (dsDNA)
DNA 1: GGGTAGTGTGGACAAAAGGCAATAATTAGCATGAGAATC
DNA 2: GATTCTCATGCTAATTATTGCCTTTTGTCCACACTACCC
For the molecule B2, in the data set with Sox2;Brn2, the binding result was “binds”.
